For 5 molecules, Kd and IC50 results are on record in publication PMC8659110, “Preliminary Study of New Gallium-68 Radiolabeled Peptide Targeting NRP-1 to Detect Brain Metastases by Positron Emission Tomography” (Molecules, 2021).

The target of assay [1] is T1, recombinant rat NRP-1 protein (rat, UniProt Q9QWJ9 22-855).
T1 construct: neuropilin-1 (NRP-1), rat, recombinant; printed MW 119 kDa; also called neuropilin-1; source: bought: Bio-techne
T1 sequence (looked up): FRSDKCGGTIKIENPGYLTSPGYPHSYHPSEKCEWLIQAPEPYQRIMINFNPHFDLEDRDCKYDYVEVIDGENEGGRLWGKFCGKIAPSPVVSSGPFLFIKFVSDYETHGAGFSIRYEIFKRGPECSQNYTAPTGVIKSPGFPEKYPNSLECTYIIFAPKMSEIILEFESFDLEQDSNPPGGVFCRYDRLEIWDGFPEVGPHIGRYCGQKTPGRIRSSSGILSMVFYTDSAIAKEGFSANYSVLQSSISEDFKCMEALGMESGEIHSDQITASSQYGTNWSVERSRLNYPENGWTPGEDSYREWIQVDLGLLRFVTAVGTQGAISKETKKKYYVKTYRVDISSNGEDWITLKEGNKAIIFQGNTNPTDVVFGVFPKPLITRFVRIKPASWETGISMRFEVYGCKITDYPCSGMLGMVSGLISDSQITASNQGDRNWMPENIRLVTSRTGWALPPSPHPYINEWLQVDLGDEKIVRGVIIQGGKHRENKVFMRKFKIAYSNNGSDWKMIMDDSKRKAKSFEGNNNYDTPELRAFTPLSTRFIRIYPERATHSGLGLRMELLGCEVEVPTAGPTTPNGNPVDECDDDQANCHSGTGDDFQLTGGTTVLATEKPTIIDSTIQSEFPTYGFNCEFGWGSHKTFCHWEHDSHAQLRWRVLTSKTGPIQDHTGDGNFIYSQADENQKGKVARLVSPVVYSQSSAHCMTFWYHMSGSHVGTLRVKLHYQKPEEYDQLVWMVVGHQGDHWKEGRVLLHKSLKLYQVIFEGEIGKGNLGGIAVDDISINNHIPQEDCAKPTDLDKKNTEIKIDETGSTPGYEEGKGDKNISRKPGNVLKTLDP
The experiment in a line: SPR; Biacore T200, 25 °C; rat NRP-1 covalently immobilised on CM5 chip (10,000 RU), IgG1 reference surface (4000 RU); PBS with 0.05% P20, pH 7.4; compounds 0.60-10 µM (scrambled peptides 10 and 30 µM, VEGF 12.5-400 nM) at 30 µL/min for 300 s; equilibrium response fitted to a 1:1 model; mean of two experiments. To be noted: both partners purified. (In general: SPR reads the build-up and loss of mass on a sensor chip optically.)

For assay [2], the target named is T2, NRP-1 recombinant chimeric protein ( (recombinant human/rat NRP-1 …, UniProt O14786 22-856)).
T2 construct: 'Chimeric' probably means the supplier's Fc chimera; also called recombinant NRP-1 protein; the receptor; source: bought: Bio-techne
T2 sequence (looked up): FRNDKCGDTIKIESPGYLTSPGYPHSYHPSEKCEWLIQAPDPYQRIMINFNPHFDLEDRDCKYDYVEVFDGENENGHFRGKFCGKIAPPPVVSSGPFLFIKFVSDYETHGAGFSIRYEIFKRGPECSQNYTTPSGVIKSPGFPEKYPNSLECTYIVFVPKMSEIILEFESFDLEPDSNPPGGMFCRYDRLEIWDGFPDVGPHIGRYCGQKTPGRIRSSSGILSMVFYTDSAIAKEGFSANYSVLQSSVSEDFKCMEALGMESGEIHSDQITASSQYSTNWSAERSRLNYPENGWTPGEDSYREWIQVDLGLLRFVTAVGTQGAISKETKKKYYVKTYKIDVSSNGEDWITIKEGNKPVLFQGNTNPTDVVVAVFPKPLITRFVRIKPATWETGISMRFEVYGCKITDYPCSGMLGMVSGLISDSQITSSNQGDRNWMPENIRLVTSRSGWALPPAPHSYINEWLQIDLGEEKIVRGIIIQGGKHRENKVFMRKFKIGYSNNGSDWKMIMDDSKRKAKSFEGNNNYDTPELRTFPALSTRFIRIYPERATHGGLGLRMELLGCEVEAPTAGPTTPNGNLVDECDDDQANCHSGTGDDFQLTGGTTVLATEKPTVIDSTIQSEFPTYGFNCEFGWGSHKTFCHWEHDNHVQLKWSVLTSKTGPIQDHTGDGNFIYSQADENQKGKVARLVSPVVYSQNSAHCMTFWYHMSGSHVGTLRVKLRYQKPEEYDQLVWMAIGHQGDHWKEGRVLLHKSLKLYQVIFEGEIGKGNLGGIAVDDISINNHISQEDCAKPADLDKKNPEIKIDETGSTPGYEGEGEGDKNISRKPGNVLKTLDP
Description: ELISA; competitive binding assay: NRP-1 recombinant chimeric protein coated on Maxisorp microplates; biotinylated VEGF-165 with heparin, with or without increasing concentrations of compounds; 2 h at room temperature; bound b-VEGF-165 detected with streptavidin-HRP, OD 450 nm; IC50 by one-site fit log-IC50. To be noted: both partners purified. On the technique in general: An ELISA detects its analyte on a solid surface through an enzyme-linked reagent.

Primed or numbered codes have the meaning given here. Where no end group is shown, it is not given here. Cy5 = Cy5 fluorophore (fluorescent dye); NODAGA′ = chelator

B1: ^natGa-NODAGA-K(Cy5)DKPPR (peptide)
peptide: {NODAGA′}-K(Cy5)DKPPR
modifications: also: NODAGA complexed with natGa
notes: KDKPPR with ^natGa-NODAGA on the N-terminal amine and Cy5 on the side chain of the first lysine; source: synthetic peptide (Fmoc/tBu/Dde solid phase; complexed with ^natGa(NO3)3, purified by preparative HPLC)
For orientation: Kd means a measure of binding affinity in units of concentration. Take B1: the dissociation constant Kd in assay [1] came out at 4 µM.

B2: KDKPPR peptide (peptide)
peptide: KDKPPR
notes: also called KDKPPR free peptide; KDKPPR alone; source: synthetic peptide (Fmoc/tBu solid phase on Fmoc-Arg(Pbf)-Wang resin, precipitated in cold diethyl ether)
As to B2, the Kd in assay [1] was 7 µM.

B3: ^natGa-NODAGA-K(Cy5)RPKPD (peptide)
peptide: {NODAGA′}-K(Cy5)RPKPD
modifications: also: NODAGA complexed with natGa
notes: scramble peptide KRPKPD with ^natGa-NODAGA on the N-terminal amine and Cy5 on the side chain of the first lysine; also called ^natGa-NODAGA-K(Cy5)scramble; source: synthetic peptide (Fmoc/tBu/Dde solid phase; complexed with ^natGa, purified by preparative HPLC)
For orientation: IC50 means the concentration at which inhibition is half-maximal. Regarding B3, in assay [2], the half-inhibitory concentration (IC50) was found to be 177 µM.

B4: K(Cy5)DKPPR (peptide)
peptide: K(Cy5)DKPPR
notes: KDKPPR with Cy5 on the side chain of the first lysine; source: synthetic peptide (solid phase with Fmoc-Lys(Cy5)-OH, purified by preparative HPLC)
Consider B4, for which, in assay [1], the Kd turned out to be 5 µM.

Consider H-KRPKPD-OH [KRPKPD scramble peptide], for which the IC50 in assay [2] came to 300 µM.
